Patent US20140286952A1 (BOARD OF SUPERVISORS FOR THE UNIVERSITY OF LOUISIA SYSTEM …, published 2014)
Values belong to the molecule of their own block, whether it stands above or below them.

Experiments:
[1] = target: zonula occludens-1 (ZO-1), endogenous protein of prostate cancer cells and tumor specimens (UniProt Q07157); assay: cell-based or functional assay
[2] = target: zonula occludens-1 (ZO-1), endogenous protein of prostate cancer cells and tumor specimens (UniProt Q07157); assay: in situ proximity ligation assay in PC-3CTRwt cells, 50 nM CT for 30 seconds
[3] = target: T1, zonula occludens-1 (ZO-1), endogenous protein of prostate cancer cells and tumor specimens (UniProt Q07157 1-1748, limits assumed); assay: in situ proximity ligation assay in PC-3CTRΔESS cells
T1 construct: whole, on cells; Intracellular protein; detected in cell lysates or fixed cells with anti-ZO-1 serum; The cells and tissues are human; also called tight junction protein 1; TJP-1
T1 sequence (Q07157 whole entry): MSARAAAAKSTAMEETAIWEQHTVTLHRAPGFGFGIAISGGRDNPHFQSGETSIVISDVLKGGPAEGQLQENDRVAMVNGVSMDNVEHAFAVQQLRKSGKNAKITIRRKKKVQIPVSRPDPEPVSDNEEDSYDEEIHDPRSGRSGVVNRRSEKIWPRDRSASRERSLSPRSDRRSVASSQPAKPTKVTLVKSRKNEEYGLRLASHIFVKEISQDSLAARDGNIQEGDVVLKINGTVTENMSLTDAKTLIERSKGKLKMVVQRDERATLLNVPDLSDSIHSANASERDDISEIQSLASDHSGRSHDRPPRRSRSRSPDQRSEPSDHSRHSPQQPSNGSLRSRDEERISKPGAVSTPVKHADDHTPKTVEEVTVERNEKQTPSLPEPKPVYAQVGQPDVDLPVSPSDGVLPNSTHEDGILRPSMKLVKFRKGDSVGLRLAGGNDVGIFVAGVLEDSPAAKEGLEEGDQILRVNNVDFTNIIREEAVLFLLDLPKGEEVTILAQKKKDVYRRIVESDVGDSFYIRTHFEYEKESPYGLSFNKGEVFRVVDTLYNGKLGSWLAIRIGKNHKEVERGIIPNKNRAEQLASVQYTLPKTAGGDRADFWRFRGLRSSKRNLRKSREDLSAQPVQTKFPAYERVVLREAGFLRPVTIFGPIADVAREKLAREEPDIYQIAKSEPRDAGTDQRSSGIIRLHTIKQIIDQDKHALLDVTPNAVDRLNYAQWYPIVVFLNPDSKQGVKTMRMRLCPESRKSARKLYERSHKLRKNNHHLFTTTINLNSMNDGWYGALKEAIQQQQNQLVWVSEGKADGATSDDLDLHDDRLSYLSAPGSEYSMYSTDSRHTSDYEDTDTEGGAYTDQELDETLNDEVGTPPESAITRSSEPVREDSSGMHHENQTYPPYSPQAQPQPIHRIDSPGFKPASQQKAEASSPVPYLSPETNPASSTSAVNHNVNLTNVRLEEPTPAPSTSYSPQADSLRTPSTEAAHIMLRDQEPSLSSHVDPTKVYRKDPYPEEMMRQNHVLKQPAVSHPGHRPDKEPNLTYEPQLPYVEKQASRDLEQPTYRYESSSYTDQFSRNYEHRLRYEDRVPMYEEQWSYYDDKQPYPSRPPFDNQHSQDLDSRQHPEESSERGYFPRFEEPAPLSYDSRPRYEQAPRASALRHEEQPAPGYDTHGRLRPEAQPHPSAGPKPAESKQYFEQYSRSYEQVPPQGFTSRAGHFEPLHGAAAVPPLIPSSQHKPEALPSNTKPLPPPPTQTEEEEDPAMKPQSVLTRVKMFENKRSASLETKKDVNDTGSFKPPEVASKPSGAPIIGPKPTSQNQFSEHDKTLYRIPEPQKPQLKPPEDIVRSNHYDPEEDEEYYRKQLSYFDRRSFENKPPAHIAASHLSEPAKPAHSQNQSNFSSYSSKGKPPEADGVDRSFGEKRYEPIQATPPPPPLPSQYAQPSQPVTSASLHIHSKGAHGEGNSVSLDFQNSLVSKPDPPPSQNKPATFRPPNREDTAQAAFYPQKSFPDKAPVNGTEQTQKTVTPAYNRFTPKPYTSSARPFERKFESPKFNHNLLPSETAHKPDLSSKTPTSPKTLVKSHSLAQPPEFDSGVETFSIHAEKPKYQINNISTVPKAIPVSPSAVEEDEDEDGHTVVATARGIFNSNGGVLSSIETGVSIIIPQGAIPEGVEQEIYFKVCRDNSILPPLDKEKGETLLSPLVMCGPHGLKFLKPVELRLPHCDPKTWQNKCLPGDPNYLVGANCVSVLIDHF

[4] = target: T2, ZO-1wt-YFP (wild-type ZO-1 fused to yellow fluorescent protein, ZO-1wt-EYFP-N1) (UniProt Q07157 1-1748); assay: acceptor photobleaching FRET microscopy in live PC-31 cells
T2 construct: whole, on cells; also called ZO-wt-YFP; ZO-1-YFP; not shown: EYFP of the EYFP-N1 plasmid
T2 sequence (Q07157 whole entry, the tested form may be a part): as the sequence (Q07157 whole entry) above

[5] = target: T1, zonula occludens-1 (ZO-1), endogenous …; assay: GST pull-down from PC-3 cell lysates, ZO-1 immunoblot

Sequence of zonula occludens-1 (ZO-1), endogenous protein of prostate cancer cells and tumor specimens (UniProt Q07157) (Q07157 whole entry): as above

decrease in transepithelial electric resistance (TER) of polarized PC-3 cells [1]: 40% | invasion through Matrigel after 50 nM CT [1]: 2.5 fold | fold increase in CTR-ZO-1 interactions (PLA dots) after CT against no CT [2]: 80 fold
Molecule: FLAG-CTRwt (full-length wild-type calcitonin receptor, FLAG-tagged, expressed in PC-3 / PC-31 cells) (from UniProt P30988 25-474)

binding result [3]: no binding
B1: FLAG-CTRΔESS (full-length calcitonin receptor with the C-terminal PDZ-binding motif ESSA replaced by AAAA, FLAG-tagged) (receptor, human, UniProt P30988 25-474, looked up)
chain: AFSNQTYPTIEPKPFLYVVGRKKMMDAQYKCYDRMQQLPAYQGEGPYCNRTWDGWLCWDDTPAGVLSYQFCPDYFPDFDPSEKVTKYCDEKGVWFKHPENNRTWSNYTMCNAFTPEKLKNAYVLYYLAIVGHSLSIFTLVISLGIFVFFRSLGCQRVTLHKNMFLTYILNSMIIIIHLVEVVPNGELVRRDPVSCKILHFFHQYMMACNYFWMLCEGIYLHTLIVVAVFTEKQRLRWYYLLGWGFPLVPTTIHAITRAVYFNDNCWLSVETHLLYIIHGPVMAALVVNFFFLLNIVRVLVTKMRETHEAESHMYLKAVKATMILVPLLGIQFVVFPWRPSNKMLGKIYDYVMHSLIHFQGFFVATIYCFCNNEVQTTVKRQWAQFKIQWNQRWGRRPSNRSARAAAAAAEAGDIPIYICHQELRNEPANNQGEESAEIIPLNIIEQAAAA
notes: whole, on cells; also called FLAG-CTR-ΔPDZ; CTRΔPDZ; not shown: FLAG tag at the 5' end of the construct

binding result [4]: no binding
B2: CTRΔESS-CFP (calcitonin receptor with ESSA replaced by AAAA, fused to cyan fluorescent protein, CTRΔESS-ECFP-N1) (receptor, human, UniProt P30988 25-474, looked up)
chain: AFSNQTYPTIEPKPFLYVVGRKKMMDAQYKCYDRMQQLPAYQGEGPYCNRTWDGWLCWDDTPAGVLSYQFCPDYFPDFDPSEKVTKYCDEKGVWFKHPENNRTWSNYTMCNAFTPEKLKNAYVLYYLAIVGHSLSIFTLVISLGIFVFFRSLGCQRVTLHKNMFLTYILNSMIIIIHLVEVVPNGELVRRDPVSCKILHFFHQYMMACNYFWMLCEGIYLHTLIVVAVFTEKQRLRWYYLLGWGFPLVPTTIHAITRAVYFNDNCWLSVETHLLYIIHGPVMAALVVNFFFLLNIVRVLVTKMRETHEAESHMYLKAVKATMILVPLLGIQFVVFPWRPSNKMLGKIYDYVMHSLIHFQGFFVATIYCFCNNEVQTTVKRQWAQFKIQWNQRWGRRPSNRSARAAAAAAEAGDIPIYICHQELRNEPANNQGEESAEIIPLNIIEQAAAA
notes: whole, on cells; also called CTRΔESS (CTRΔPDZ)-CFP; not shown: ECFP of the ECFP-N1 plasmid

binding result [5]: no binding (tested: 2 µg fusion protein)
B3: GST-CTR-CΔESS fusion protein (GST fused to the intracellular C-terminal domain of CTRΔESS, aa 441-476) (other, human, UniProt P30988 441-474, looked up)
chain: YICHQELRNEPANNQGEESAEIIPLNIIEQAAAA
notes: range 441-476; also called CTR-C-ΔPDZ; not shown: GST from the pGEX vector
